Reference: paper PMC6335420, “The cell cycle regulator GpsB functions as cytosolic adaptor for multiple cell wall enzymes” (Nature Communications, 2019)
Residues, ends and D or L forms follow the SMILES beside them. *: point of attachment. Fluorescein(5-Mal) = O=C1OC2(c3ccc(O)cc3Oc3cc(O)ccc32)c2ccc(N3C(=O)CC(*)C3=O)cc21; X1 = CN(C)c1ccc2c(-c3ccc(N4C(=O)CC(*)C4=O)cc3C(=O)[O-])c3ccc(=[N+](C)C)cc-3oc2c1; 5FAM = O=C1OC2(c3ccc(O)cc3Oc3cc(O)ccc32)c2ccc(C(=O)*)cc21

How the values were obtained:
BsGpsB1-68Lys32Glu = biological target: T1, BsGpsB1-68Lys32Glu (Bacillus subtilis, UniProt P0CI74, K32E); assay: Fluorescence polarisation binding to BsGpsB1-68Lys32Glu; details: FP, relative to wild-type LmPBPA1 peptide
T1 construct: His6 (N, cleaved yes); made in house; host or cells: E. coli BL21(DE3)
T1 sequence (P0CI74 1-68 K32E): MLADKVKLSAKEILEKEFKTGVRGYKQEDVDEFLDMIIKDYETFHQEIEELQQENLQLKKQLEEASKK
From the text: (§1) 75 the BsGpsB5-64:BsPBP11-17 complex.

SpGpsB1-63 = biological target: T2, SpGpsB1-63 (Streptococcus pneumoniae, UniProt Q8DR57); assay: Fluorescence polarisation binding to SpGpsB1-63; details: FP
T2 construct: The SpGpsB1-63 expression construct (pET28SpGpsB1-63) was prepared by PCR amplification of gpsB; His6 (N, cleaved yes); made in house; host or cells: E. coli BL21(DE3)
T2 sequence (Q8DR57 1-63): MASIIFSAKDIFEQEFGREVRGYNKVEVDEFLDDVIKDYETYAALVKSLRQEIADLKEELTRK
From the text: as §1

[1] = biological target: T3, BsPBP1_(1-32), TAMRA-labelled at position 16 (B. subtilis, UniProt P39793 1-32, Ser16Cys, TAMRA (maleimide) at position 16); assay: fluorescence polarisation; GpsB protein titrated into fluorescently labelled peptide; 10 mM Tris.HCl pH 8.0, 250 mM NaCl, 0.1% reduced Triton X-100; fit to a 1:1 interaction model; details: both partners purified
T3 construct: PBP1, Bacillus subtilis, residues 1-32; also called BsPBPA1_(1-32); BsPBP1A_(1-32); source: E. coli, His-tagged MBP fusion purified (Ni-NTA), labelled, TEV-cleaved, ultrafiltration
T3 peptide (looked up): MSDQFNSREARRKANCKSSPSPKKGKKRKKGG

[2] = Circular dichroism thermal unfolding of BsGpsB1-68 variants; type: physicochemical; details: CD at 222 nm vs temperature, 4.5 μM protein, 20 mM sodium phosphate (pH 7.8) 150 mM NaCl, 1 °C/min
Method: CD spectra were recorded on a JASCO J-810 spectropolarimeter with a PTC-4235 Peltier temperature controller using 1 mm path length quartz cuvettes. For full wavelength scans a scan speed of 10 nm^−1min^−1 and a response time of 4 s were used, the final spectra were the average of at least four measurements. BsPBP1_1-32 CD spectra were recorded at 4 °C in a buffer of 20 mM sodium phosphate, pH 7.3 at a peptide concentration of 25 μM. Peptide helical contents were estimated from molar ellipticities at 222 nm using the equation helix = [θ]222 nm / (39,500(1–2.57/n))[78] where n is the number of residues in the peptide. LmPBPA1_1-15 CD spectra were analysed at 40 μM in 20 mM sodium phosphate buffer, pH 7.8, for samples containing 0, 40 and 60% trifluoroethanol (TFE). For samples containing 80% TFE, 5 mM sodium phosphate buffer, pH 7.8, was used. The CD spectra of BsGpsB1-68 proteins were measured at a concentration of 4.5 μM in a buffer of 20 mM sodium phosphate (pH 7.8) 150 mM NaCl. For thermal melt experiments, a response time of 8 s and scan rate of 1 °C^−1min^−1 were used. All thermal melts were reversible as CD spectra recorded before and after the melts in the wavelength range 200–240 nm could be superimposed.

With `CSCC[C@H](NC(=O)[C@H](CO)NC(=O)CN)C(=O)N[C@@H](C)C(=O)N[C@@H](CC(=O)O)C(=O)N[C@@H](CCCCN)C(=O)N1CCC[C@H]1C(=O)N[C@@H](CCC(N)=O)C(=O)N[C@H](C(=O)N[C@@H](C)C(=O)N[C@@H](CO)C(=O)N[C@@H](CCC(N)=O)C(=O)N[C@@H](Cc1ccc(O)cc1)C(=O)N[C@@H](CCCNC(=N)N)C(=O)N[C@@H](CC(N)=O)C(=O)N[C@@H](CCCCN)C(=O)N[C@@H](CCC(N)=O)C(=O)N[C@@H](CCCNC(=N)N)C(=O)NCC(=O)NCC(=O)N[C@@H](CSC1CC(=O)N(c2ccc3c(c2)C(=O)OC32c3ccc(O)cc3Oc3cc(O)ccc32)C1=O)C(=O)N[C@@H](CCCCN)C(=O)O)[C@@H](C)O` (stereo partly shown) [Fluorescein-LmPBPA11-20 Arg8AlaSer16Arg] (H-GSMADKPQTASQYRNKQRGGC(Fluorescein(5-Mal))K-OH; N-terminus and C-terminus assumed) the “reduction in affinity for BsGpsB1-68Lys32Glu” value (BsGpsB1-68Lys32Glu) was “at least 10 fold”.

In the case of `CC[C@H](C)[C@H](NC(=O)[C@@H](NC(=O)[C@H](CCCNC(=N)N)NC(=O)[C@H](CCCCN)NC(=O)[C@@H](NC(=O)[C@H](Cc1c[nH]c2ccccc12)NC(=O)[C@H](CCC(=O)O)NC(=O)[C@H](CCSC)NC(=O)CNC(=O)[C@H](CO)NC(=O)CNC(=O)[C@H](CO)NC(=O)CN)[C@@H](C)O)C(C)C)C(=O)N[C@@H](CCCNC(=N)N)C(=O)N[C@@H](Cc1ccc(O)cc1)C(=O)N[C@@H](C)C(=O)N[C@H](C(=O)N[C@@H](CCCCN)C(=O)N[C@@H](CC(N)=O)C(=O)N[C@@H](CCCNC(=N)N)C(=O)N[C@@H](CCCCN)C(=O)N[C@@H](CO)C(=O)N1CCC[C@H]1C(=O)N[C@@H](C)C(=O)N[C@@H](CCC(=O)O)C(=O)N[C@@H](CC(N)=O)C(=O)N[C@@H](CCCNC(=N)N)C(=O)N[C@@H](CCCNC(=N)N)C(=O)N[C@@H](CCCNC(=N)N)C(=O)N[C@H](C(=O)NCC(=O)N[C@@H](CCCCN)C(=O)N[C@@H](CO)C(=O)N[C@@H](CC(C)C)C(=O)N[C@@H](CSC1CC(=O)N(c2ccc3c(c2)C(=O)OC32c3ccc(O)cc3Oc3cc(O)ccc32)C1=O)C(=O)N[C@@H](CO)C(=O)O)C(C)C)[C@@H](C)O` (stereo partly shown) [Fluorescein-SpPBP2x1-29] (H-GSGSGMEWTKRVIRYATKNRKSPAENRRRVGKSLC(Fluorescein(5-Mal))S-OH; N-terminus and C-terminus assumed), the “binding to SpGpsB1-63 (in words)” value (SpGpsB1-63) is reported as “interacts”.

For `CC[C@H](C)[C@H](NC(=O)[C@@H]1CCCN1C(=O)[C@H](CSC1CC(=O)N(c2ccc(-c3c4ccc(=[N+](C)C)cc-4oc4cc(N(C)C)ccc34)c(C(=O)[O-])c2)C1=O)NC(=O)[C@@H](NC(=O)[C@H](CCC(N)=O)NC(=O)[C@H](C)NC(=O)[C@H](CC(C)C)NC(=O)[C@H](CCCCN)NC(=O)[C@H](CCCCN)NC(=O)[C@H](CCCNC(=N)N)NC(=O)[C@H](CC(=O)O)NC(=O)[C@H](CO)NC(=O)[C@H](CCCNC(=N)N)NC(=O)[C@H](CO)NC(=O)[C@H](CCCCN)NC(=O)[C@H](CCCNC(=N)N)NC(=O)[C@H](CC(C)C)NC(=O)[C@@H](NC(=O)[C@@H](NC(=O)[C@H](CO)NC(=O)[C@H](CC(=O)O)NC(=O)[C@H](CO)NC(=O)[C@H](CC(=O)O)NC(=O)[C@H](CCSC)NC(=O)[C@H](CO)NC(=O)CN)[C@@H](C)O)[C@@H](C)CC)C(C)C)C(=O)O` (stereo partly shown) [TAMRA-SpPBP2a23-45 Arg31Lys] (H-GSMDSDSTILRKSRSDRKKLAQVC(X1)PI-OH), the “reduction in affinity for SpGpsB1-63” value (SpGpsB1-63; relative to wild-type SpPBP2a23-45) was 2 fold.

With `CC[C@H](C)[C@H](NC(=O)[C@H](CC(C)C)NC(=O)[C@H](CCCNC(=N)N)NC(=O)[C@H](CCSC)NC(=O)CNC(=O)c1ccc2c(c1)C(=O)OC21c2ccc(O)cc2Oc2cc(O)ccc21)C(=O)N[C@@H](CS)C(=O)N[C@@H](CCSC)C(=O)N[C@@H](CCCNC(=N)N)C(=O)N[C@@H](CCCCN)C(=O)N[C@@H](Cc1ccccc1)C(=O)N[C@@H](CC(N)=O)C(=O)N[C@@H](CO)C(=O)N[C@@H](Cc1c[nH]cn1)C(=O)N[C@@H](CO)C(=O)N[C@H](C(=O)N1CCC[C@H]1C(=O)N[C@H](C(=O)N[C@@H](CCCNC(=N)N)C(=O)O)[C@@H](C)CC)[C@@H](C)CC` [Fluorescein-SpPBP2b1-17] (5FAM-GMRLICMRKFNSHSIPIR-OH; N-terminus and C-terminus assumed) the “binding to SpGpsB1-63 (in words)” value (SpGpsB1-63) was “not”.

B1: BsGpsB_(1-68)^Asp35Ala (domain or fragment, B. subtilis, UniProt P0CI74 1-68, looked up)
chain: MLADKVKLSAKEILEKEFKTGVRGYKQEDVDKFLAMIIKDYETFHQEIEELQQENLQLKKQLEEASKK
notes: GpsB, Bacillus subtilis, residues 1-68; source: E. coli, purified (Ni-NTA, thrombin, size exclusion)
With B1 the “fold reduction in affinity against wild type” value [1] was greater than 8 fold.

B2: BsGpsB^Tyr25Phe: BsGpsB1-68 variant (protein)
chain: MLADKVKLSAKEILEKEFKTGVRGFKQEDVDKFLDMIIKDYETFHQEIEELQQENLQLKKQLEEASKK
modifications: left off: His6, end not stated, cleaved
notes: BsGpsB1-68 variant
For B2, the “impact of mutation on protein stability” value [2] was “little impact on protein stability”.

B3: BsGpsB1-68^Asp35Ala: BsGpsB1-68 variant (protein)
chain: MLADKVKLSAKEILEKEFKTGVRGYKQEDVDKFLAMIIKDYETFHQEIEELQQENLQLKKQLEEASKK
modifications: left off: His6, N-terminal, cleaved
notes: BsGpsB1-68 variant
For B3, the “impact of mutation on protein stability” value [2] was “little impact on protein stability”.

B4: BsGpsB1-68^Glu17Ala: BsGpsB1-68 variant (protein)
chain: MLADKVKLSAKEILEKAFKTGVRGYKQEDVDKFLDMIIKDYETFHQEIEELQQENLQLKKQLEEASKK
modifications: left off: His6, N-terminal, cleaved
notes: BsGpsB1-68 variant
With B4 the “impact of mutation on protein stability” value [2] was “little impact on protein stability”.

B5: BsGpsB1-68^Asp31Ala: BsGpsB1-68 variant (protein)
chain: MLADKVKLSAKEILEKEFKTGVRGYKQEDVAKFLDMIIKDYETFHQEIEELQQENLQLKKQLEEASKK
modifications: left off: His6, N-terminal, cleaved
notes: BsGpsB1-68 variant
In the case of B5, the “impact of mutation on protein stability” value [2] is reported as “little impact on protein stability”.

B6: BsGpsB_(1-68)^Glu17Ala (domain or fragment, B. subtilis, UniProt P0CI74 1-68, looked up)
chain: MLADKVKLSAKEILEKAFKTGVRGYKQEDVDKFLDMIIKDYETFHQEIEELQQENLQLKKQLEEASKK
notes: as for B1
In the case of B6, the “fold reduction in affinity against wild type” value [1] is reported as greater than 8 fold.
